Experimental data taken from patent US20140120109A1 (Regeneron, published 2014).
One block for each binder: values may come before it.

What was measured:
[1] = target: T1, rat TL1A, soluble, CHO-expressed, residues 76-252 of SEQ ID NO:258 with N-terminal His6-tag (rat, UniProt Q8K3Y7 76-252); assay: SPR 37C, mAb captured; kd set at 1e-6 1/s
T1 construct: also called rTL1A; rTL1A (CHO)
T1 sequence: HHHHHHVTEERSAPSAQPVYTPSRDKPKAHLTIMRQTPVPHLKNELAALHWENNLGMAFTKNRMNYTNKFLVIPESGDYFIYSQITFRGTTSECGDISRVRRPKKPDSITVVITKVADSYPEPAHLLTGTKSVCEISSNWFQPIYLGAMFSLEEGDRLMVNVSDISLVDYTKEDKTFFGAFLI
Description: (§1) Measurements were conducted on a T100 BIACORE™ instrument. […] Kinetic association (kₐ) and dissociation (kd) rate constants were determined by fitting the data to a 1:1 binding model using BIAevaluation 4.1 curve fitting software (BIAcore Life Sciences). Molar concentrations of TL1A/Fhm used in the data fitting assumed a monomeric state for TL1A in solution. Binding dissociation equilibrium constants (KD) and dissociative half-lives (t_{1/2}) were calculated from the kinetic rate constants as: KD (M)=kd/kₐ; and t_{1/2} (min)=[In2/(60*kd)].

[2] = target: T2, mouse TL1A, soluble, CHO-expressed, residues 76-252 of SEQ ID NO:250 with N-terminal His6-tag (mouse, UniProt Q5UBV8 76-252); assay: SPR 25C, mAb captured; 25 C, CHO-expressed mTL1A, SPR
T2 construct: also called mTL1A; mTL1A (CHO)
T2 sequence: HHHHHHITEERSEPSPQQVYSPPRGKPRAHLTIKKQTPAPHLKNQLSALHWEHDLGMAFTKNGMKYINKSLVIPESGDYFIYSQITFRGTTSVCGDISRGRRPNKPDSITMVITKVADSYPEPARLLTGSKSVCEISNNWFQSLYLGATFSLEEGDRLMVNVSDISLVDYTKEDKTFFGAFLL
Description: as §1

[3] = target: T3, Fhm, hTL1A(Q167R), soluble, CHO-expressed, residues 72-251 of SEQ ID NO:246 (human, UniProt O95150 72-251); assay: ELISA, blocks FHM (150 pM) binding hDR3-Fc; blocking of FHM binding to hDR3
T3 construct: also called Fhm (CHO); FHM (CHO)
T3 chain: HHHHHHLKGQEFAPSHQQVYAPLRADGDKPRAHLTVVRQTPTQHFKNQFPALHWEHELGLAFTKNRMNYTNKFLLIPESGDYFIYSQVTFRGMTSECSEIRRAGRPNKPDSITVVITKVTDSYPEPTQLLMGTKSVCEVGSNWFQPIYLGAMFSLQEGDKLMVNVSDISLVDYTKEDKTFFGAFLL
Description: The ability of antibodies to block human TL1A binding to its cognate receptors, the DR3 and DcR3 receptors, was measured using a competition sandwich ELISA. In addition, blocking of a human TL1A variant FHM (human TL1A Q167R) and the cynomolgus monkey (Macaca fascicularis) TL1A (MfTL1A) protein binding to the human DR3 or DcR3 receptors was measured in the same manner. Constant amounts of biotinylated human TL1A or FHM (both expressed with a 6-His tag in CHO cells) or biotinylated MfTL1A (expressed in CHO cells) were separately titrated with varying amounts of antibodies. The antibody-protein complexes were incubated in solution (1 hr, 25° C.) and then transferred to microtiter plates coated with human DR3 (hDR3) or human DcR3 (hDcR3) expressed as human IgG1 Fc fusion proteins. After one hour at 25° C. the wells were washed, and bound human or monkey TL1A was detected with streptavidin conjugated with horseradish peroxidase (HRP). Wells were developed with a TMB solution to produce a colorimetric reaction and quenched with aqueous sulfuric acid before reading absorbance at 450 nm on a Perkin-Elmer Victor X5 plate reader. A sigmoidal dose-response curve was fit to the data using the Prism™ data analysis package. […] Both fully human anti-hTL1A mAbs and comparator antibodies, i.e., control mAb1 (an anti-hTL1A antibody with heavy and light chain variable domains having the amino acid sequences corresponding to SEQ ID NOS:21 and 27, respectively, of US 2009/0280116) and control mAb3 (an anti-hTL1A antibody with heavy and light chain variable domains having the amino acid sequences corresponding to SEQ ID NOS:57 and 48, respectively, of US 2009/0280116), were included in the study. NB: No binding under the conditions tested; NT: Not tested. Concentrations of biotinylated soluble ligands: (1) 150 pM; (2) 500 pM; (3) 10 pM; and (4) 50 pM.

[4] = target: T4, cynomolgus monkey TL1A, soluble, CHO-expressed, residues 72-251 of SEQ ID NO:248 with N-terminal His6-tag (cynomolgus monkey (Macaca fascicularis), UniProt O95150 72-251 (human entry)); assay: SPR 25C, mAb captured; SPR, 25 C
T4 construct: also called MfTL1A; MfTL1A (CHO)
T4 chain: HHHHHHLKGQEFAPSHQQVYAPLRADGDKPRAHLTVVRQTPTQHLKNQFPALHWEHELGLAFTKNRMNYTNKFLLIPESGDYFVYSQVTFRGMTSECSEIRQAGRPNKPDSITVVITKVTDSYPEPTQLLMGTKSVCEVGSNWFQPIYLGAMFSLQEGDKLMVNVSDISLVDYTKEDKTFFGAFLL

[5] = target: T4, cynomolgus monkey TL1A, soluble, …; assay: SPR 37C, mAb captured; SPR, 37 C
Description: as §1

[6] = target: T5, human TL1A, soluble, CHO-expressed, residues 72-251 of SEQ ID NO:244 with N-terminal His6-tag (human, UniProt O95150 72-251); assay: SPR 25C, mAb captured; kd set at 1e-6 1/s; 25 C; kd set at 1x10^-6 1/s
T5 construct: also called hTL1A; hTL1A (CHO)
T5 sequence: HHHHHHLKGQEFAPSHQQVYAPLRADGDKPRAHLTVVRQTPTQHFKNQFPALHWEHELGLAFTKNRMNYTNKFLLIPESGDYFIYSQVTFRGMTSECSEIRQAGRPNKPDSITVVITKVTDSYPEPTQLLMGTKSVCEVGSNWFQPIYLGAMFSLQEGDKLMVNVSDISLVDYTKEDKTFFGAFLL
Description: as §1

[7] = target: T4, cynomolgus monkey TL1A, soluble, …; assay: ELISA, blocks MfTL1A (500 pM) binding hDR3-Fc; blocking of MfTL1A binding to hDR3
Description: The ability of antibodies to block human TL1A binding to its cognate receptors, the DR3 and DcR3 receptors, was measured using a competition sandwich ELISA. In addition, blocking of a human TL1A variant FHM (human TL1A Q167R) and the cynomolgus monkey (Macaca fascicularis) TL1A (MfTL1A) protein binding to the human DR3 or DcR3 receptors was measured in the same manner. Constant amounts of biotinylated human TL1A or FHM (both expressed with a 6-His tag in CHO cells) or biotinylated MfTL1A (expressed in CHO cells) were separately titrated with varying amounts of antibodies. The antibody-protein complexes were incubated in solution (1 hr, 25° C.) and then transferred to microtiter plates coated with human DR3 (hDR3) or human DcR3 (hDcR3) expressed as human IgG1 Fc fusion proteins. After one hour at 25° C. the wells were washed, and bound human or monkey TL1A was detected with streptavidin conjugated with horseradish peroxidase (HRP). Wells were developed with a TMB solution to produce a colorimetric reaction and quenched with aqueous sulfuric acid before reading absorbance at 450 nm on a Perkin-Elmer Victor X5 plate reader. A sigmoidal dose-response curve was fit to the data using the Prism™ data analysis package. […]

Kd [1]: ≤ 0.00061 nM
t1/2 [1]: ≥ 192 h
Kd [2]: 7.1 nM
t1/2 [2]: 12 min
B1: H4H1818N (antibody, human IgG4 S228P, V domains shown)
VH: RLQLVESGGGLVKPGGSLKLSCAASGFTISDYYMSWIRQAPGKGLEWVSYIGGSGSTIYYADSVKGRFTISRDNAKNSLYLQMNSLRAEDTAVYYCAREDADSYYYYGMDVWGQGTTVTVSS
VL: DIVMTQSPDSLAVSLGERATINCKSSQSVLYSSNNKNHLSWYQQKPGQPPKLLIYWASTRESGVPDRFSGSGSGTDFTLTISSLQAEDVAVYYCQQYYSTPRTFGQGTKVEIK
notes: human IgG4(S108P) form of H2M1818N

IC50 [3]: 0.069 nM
B2: H4H1804N (antibody, human IgG4 S228P, V domains shown)
VH: QVQLHQWGAGLLKPSETLSLTCAVSGVSFSDYHWAWIRQSPGKGLEWIGDINHRGRTNYNPSLKSRVTISLDTSGNPFSLKLTSVTAADTAVYYCARDFPNWVFDSWGQGILVTVSS
VL: EIVLSQSPGTLSLSPGERATLSCRASQSVSSSFLAWYQQYPGQAPRLLIYGASRRATGIPDRFRGSGSGTDFTLTISRLEPEDFAVYYCQQYGSSPLTFGGGTKVENK
notes: human IgG4(S108P) form of H2M1804N

Kd [4]: 8.6 nM
t1/2 [4]: 21 min
Kd [5]: 17.1 nM
t1/2 [5]: 11 min
Kd [6]: ≤ 0.0158 nM
IC50 [7]: 5.21 nM
B3: H4H1750P (antibody, human IgG4 S228P, V domains shown)
VH: QVQLVESGGGVVQPGRSLRLSCVASGFTFSNYGMHWVRQAPGKGLEWVAVISYDGNNDLYSDSVKGRFTISRDNAKNALSLQMTSLRAEDTAVYYCARDSTMTPYYYHGIDVWGQGTTVTVSA
VL: DIQMTQSPSSLSASVGDRVTITCRASQDIRNDLGWYQQKPGKAPKRLIYAASSLQSGVPSRFSGSGSGTDFTLTISSLQPEDFATYYCLQHNSYPPTFGQGTKVEIK
